Reference: patent US20140141415A1

How the values were obtained:
[1] = molecular target: GFP 1-9 OPT (Aequorea victoria); assay: split GFP complementation, sandwich format
[2] = molecular target: sulfite reductase-GFP S11 wild type (Pyrobaculum aerophilum; Aequorea victoria); assay: split GFP complementation in vitro, soluble lysate with excess purified fusion protein

Substance	fold increase of complementation rate compared to the starting strand construct [1] [fold]	fold improvement of in vitro complementation relative to the same amount of refolded superfolder GFP 1-10 [2] [fold]
(GFP S10 SM5)-L1-sulfite reductase-L2-(GFP S11 SM5)	20	–
GFP 1-10 OPT	–	80
